{"source": "patent US20100203044A1", "about": "“DR6 ANTAGONISTS AND USES THEREOF IN TREATING NEUROLOGICAL DISORDERS” (priority 2006, published 2010)", "key": {"DR6 receptor": {"molecular_target": "T1, DR6 receptor (Homo sapiens, UniProt O75509)", "T1 construct": "expressed in transfected cells; host or cells: COS-1", "T1 sequence (O75509 42-655)": "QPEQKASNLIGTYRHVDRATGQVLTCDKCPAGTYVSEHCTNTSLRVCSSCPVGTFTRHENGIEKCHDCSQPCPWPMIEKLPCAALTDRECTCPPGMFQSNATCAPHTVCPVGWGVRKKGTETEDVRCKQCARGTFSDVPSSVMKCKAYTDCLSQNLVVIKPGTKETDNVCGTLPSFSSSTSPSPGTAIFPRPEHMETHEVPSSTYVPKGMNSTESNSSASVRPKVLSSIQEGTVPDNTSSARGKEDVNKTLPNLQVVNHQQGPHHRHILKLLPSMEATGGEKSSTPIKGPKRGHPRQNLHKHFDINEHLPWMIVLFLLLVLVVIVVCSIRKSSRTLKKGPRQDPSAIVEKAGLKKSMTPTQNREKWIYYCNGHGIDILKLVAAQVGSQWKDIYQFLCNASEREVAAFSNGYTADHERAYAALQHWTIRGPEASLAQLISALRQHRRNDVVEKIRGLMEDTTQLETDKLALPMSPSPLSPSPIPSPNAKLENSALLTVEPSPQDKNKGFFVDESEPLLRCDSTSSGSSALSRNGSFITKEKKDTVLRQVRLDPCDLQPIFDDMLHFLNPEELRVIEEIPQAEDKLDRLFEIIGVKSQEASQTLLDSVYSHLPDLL", "experiment": "cell-based AP binding assay, DR6 receptor expressing COS-1 cells", "conditions": "same conditions as APP binding", "protocol": "(§1) For the APP AP binding assay, COS-1 cells cultured in DMEM/10% FBS (Gibco) medium in 6-well culture dishes were transfected with 2 microgram of APP expressing vector per well using FuGene transfection reagent (Roche) according to the manufacturer protocol. Two days post-transfection, cells were washed twice with the binding buffer (HBSS, Gibco Cat. No. 14175-095, with 0.2% BSA, 0.1% NaN3, 5 mM CaCl2, 1 mM MgCl2, 20 mM HEPES, pH=7.0). An AP binding assay was then carried out by making a 1:1 mixture of DR6-AP conditioned medium and the binding buffer, which was applied directly to APP over-expressing COS-1 cells and incubated for 90 minutes at room temperature. Following the incubation, the unbound DR6-AP proteins were washed away by rinsing COS-1 cells five times with the binding buffer. Cells were then fixed with 3.7% formaldehyde diluted in PBS, for 12 minutes at room temperature. The remaining formaldehyde was removed by rinsing cells 3 times with HBS buffer (20 mM HEPES pH=7.0, 150 mM NaCl). Endogenous AP activity was blocked by heat inactivation at 65° C. in HBS buffer for 30 minutes. COS-1 cells were then rinsed three times in the AP reaction buffer (100 mM TRIS pH=9.5, 100 mM NaCl, 50 mM MgCl2). […]"}, "APP": {"molecular_target": "T2, APP (Homo sapiens, UniProt P05067)", "T2 construct": "expressed in transfected cells; host or cells: COS-1", "T2 sequence (P05067 18-770)": "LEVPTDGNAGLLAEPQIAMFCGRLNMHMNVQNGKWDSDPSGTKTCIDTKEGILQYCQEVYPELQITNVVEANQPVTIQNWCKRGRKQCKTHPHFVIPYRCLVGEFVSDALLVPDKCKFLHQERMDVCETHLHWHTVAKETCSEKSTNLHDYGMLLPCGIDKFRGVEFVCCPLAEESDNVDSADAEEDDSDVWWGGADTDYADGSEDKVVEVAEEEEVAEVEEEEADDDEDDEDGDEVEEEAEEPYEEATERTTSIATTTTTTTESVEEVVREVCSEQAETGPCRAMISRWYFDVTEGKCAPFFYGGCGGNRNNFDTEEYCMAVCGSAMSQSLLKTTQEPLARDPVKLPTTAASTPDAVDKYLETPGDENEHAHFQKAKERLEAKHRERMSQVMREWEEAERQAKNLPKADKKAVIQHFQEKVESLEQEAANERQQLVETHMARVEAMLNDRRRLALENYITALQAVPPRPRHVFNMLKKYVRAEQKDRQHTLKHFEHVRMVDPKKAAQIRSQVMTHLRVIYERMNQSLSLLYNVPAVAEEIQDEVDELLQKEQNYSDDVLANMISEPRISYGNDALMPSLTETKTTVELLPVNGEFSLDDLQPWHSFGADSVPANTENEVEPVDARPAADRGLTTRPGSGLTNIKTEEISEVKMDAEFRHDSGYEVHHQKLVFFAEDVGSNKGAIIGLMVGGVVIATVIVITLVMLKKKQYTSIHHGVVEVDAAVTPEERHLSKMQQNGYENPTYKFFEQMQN", "experiment": "cell-based AP binding assay, APP expressing COS-1 cells", "conditions": "DR6-AP conditioned medium 1:1 with binding buffer, 90 minutes", "protocol": "The materials and methods used to generate the data shown in this figure are as follows. To test whether APP directly interacts with DR6 extracellular domain, a cell-based AP binding assay was carried out (FIG. 14B). To generate DR6 ectodomain-AP fusion protein (DR6-AP), COS-1 cells cultured in DMEM/10% FBS (Gibco) medium were transfected with 15 microgram of DR6-AP fusion expression construct using FuGene transfection reagent (Roche) according to the manufacturer protocol. Twelve hours post-transfection, COS-1 cell medium was changed to OPTI-MEM (Invitrogen). Forty-eight hours post-transfection, COS-1 cell conditioned medium containing DR6-AP proteins was collected and filtered.\nThe amount of DR6-AP proteins in the medium was quantified according to the following procedure. 100 microliters of 2×AP buffer (prepared by adding 100 mg Para-nitrophenyl phosphate (Sigma) and 15 microliter of 1M MgCl2 to 15 ml 2M diethanolamine pH 9.8) was mixed with equal volume of transfected COS cell conditioned medium or control conditioned medium from untransfected COS-1 cells. […] The volume of reaction was then adjusted by adding 800 microliters of distilled water and the O.D. was measured at 405 nm absorbance wavelength. The concentration in nM was calculated according to the formula (for 100 microliter): C (nM)=O.D.×100×(60/developing time)/30. […]"}, "p75NTR": {"molecular_target": "T3, p75NTR (Homo sapiens, UniProt P08138)", "T3 construct": "expressed in transfected cells; host or cells: COS-1", "T3 sequence (P08138 29-427)": "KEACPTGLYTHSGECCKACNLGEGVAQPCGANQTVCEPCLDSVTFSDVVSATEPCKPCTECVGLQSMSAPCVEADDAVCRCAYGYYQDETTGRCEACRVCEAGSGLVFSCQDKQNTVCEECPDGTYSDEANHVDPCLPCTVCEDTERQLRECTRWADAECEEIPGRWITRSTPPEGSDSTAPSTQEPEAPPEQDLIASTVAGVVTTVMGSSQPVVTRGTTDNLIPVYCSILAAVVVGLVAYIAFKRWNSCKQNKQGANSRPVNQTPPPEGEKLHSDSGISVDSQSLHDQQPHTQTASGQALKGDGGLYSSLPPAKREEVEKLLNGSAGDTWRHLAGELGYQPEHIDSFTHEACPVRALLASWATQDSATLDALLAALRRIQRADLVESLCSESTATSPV", "experiment": "cell-based AP binding assay, p75NTR expressing COS-1 cells", "conditions": "same conditions as APP binding", "protocol": "as §1"}}, "note": "“Also recorded” adds a separate entry of the source."}
{"molecule": "DR6-AP: mouse DR6 ectodomain fused to human placental alkaline phosphatase (protein) QPEQKTLSLPGTYRHVDRTTGQVLTCDKCPAGTYVSEHCTNMSLRVCSSCPAGTFTRHENGIERCHDCSQPCPWPMIERLPCAALTDRECICPPGMYQSNGTCAPHTVCPVGWGVRKKGTENEDVRCKQCARGTFSDVPSSVMKCKAHTDCLGQNLEVVKPGTKETDNVCGMRLFFSSTNPPSSGTVTFSHPEHMESHDVPSSTYEPQGMNSTDSNSTASVRTKVPSGIEEGTVPDNTSSTSGKEGTNRTLPNPPQVTHQQAPHHRHILKLLPSSMEATGEKSSTAIKAPKRGHPRQNAHKHFDINEHIIPVEEENPDFWNREAAEALGAAKKLQPAQTAAKNLIIFLGDGMGVSTVTAARILKGQKKDKLGPEIPLAMDRFPYVALSKTYNVDKHVPDSGATATAYLCGVKGNFQTIGLSAAARFNQCNTTRGNEVISVMNRAKKAGKSVGVVTTTRVQHASPAGTYAHTVNRNWYSDADVPASARQEGCQDIATQLISNMDIDVILGGGRKYMFRMGTPDPEYPDDYSQGGTRLDGKNLVQEWLAKRQGARYVWNRTELMQASLDPSVTHLMGLFEPGDMKYEIHRDSTLDPSLMEMTEAALRLLSRNPRGFFLFVEGGRIDHGHHESRAYRALTETIMFDDAIERAGQLTSEEDTLSLVTADHSHVFSFGGYPLRGSSIFGLAPGKARDRKAYTVLLYGNGPGYVLKDGARPDVTESESGSPEYRQQSAVPLDEETHAGEDVAVFARGPQAHLVHGVQEQTFIAHVMAFAACLEPYTACDLAPPAGTTDAAHPG", "values": [{"measurement": "binding of DR6 ectodomain to DR6 receptor expressing cells", "setting": "DR6 receptor", "result": "does NOT bind; also recorded: no specific binding"}, {"measurement": "binding of DR6 ectodomain to APP expressing cells", "setting": "APP", "result": "binds APP expressed by cultured cells"}, {"measurement": "binding of DR6 ectodomain to p75NTR expressing cells", "setting": "p75NTR", "result": "does NOT bind; also recorded: no specific binding"}]}
